Measurements reported in article doi:10.1101/2020.09.27.316166.
Where two headings read alike, the source gives them in different places.

B1: ISD (interferon stimulatory DNA, 45 bp) (dsDNA)
DNA 1: TACAGATCTACTAGTGATCTATGACTGATCTGTACATGATCTACA
DNA 2: TGTAGATCATGTACAGATCAGTCATAGATCACTAGTAGATCTGTA

Key:
[1] = target: T1, FL-hcGAS (human cyclic GMP-AMP synthase) (human, UniProt Q8N884 1-522); assay: phase separation microscopy
[2] = target: T1, FL-hcGAS (human cyclic GMP-AMP synthase); assay: phase separation microscopy; remark: listed apart in the source

T1 sequence (Q8N884 whole entry): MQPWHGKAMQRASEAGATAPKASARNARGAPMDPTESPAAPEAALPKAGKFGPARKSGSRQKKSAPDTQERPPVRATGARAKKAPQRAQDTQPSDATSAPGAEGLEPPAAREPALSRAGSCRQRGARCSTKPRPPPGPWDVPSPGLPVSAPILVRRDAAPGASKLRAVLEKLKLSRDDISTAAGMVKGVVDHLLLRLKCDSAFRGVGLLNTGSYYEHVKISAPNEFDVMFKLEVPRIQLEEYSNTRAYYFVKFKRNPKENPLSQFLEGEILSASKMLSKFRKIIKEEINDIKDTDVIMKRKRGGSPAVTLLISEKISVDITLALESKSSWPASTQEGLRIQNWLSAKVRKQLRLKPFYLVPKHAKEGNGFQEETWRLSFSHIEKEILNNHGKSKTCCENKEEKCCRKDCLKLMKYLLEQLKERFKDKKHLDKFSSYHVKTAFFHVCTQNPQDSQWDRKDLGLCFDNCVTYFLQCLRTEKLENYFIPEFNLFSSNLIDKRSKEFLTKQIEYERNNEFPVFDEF

Binder | binding result [1] | binding result [2]
B1 | binds | 
AGAGAGAGAGAGAGAGAGAGAGAGAGAGAGAGAGAGAGAGAGAGAGAG (ssDNA) [48 nt ssDNA (AG repeat)] |  | binds
